Assay results: patent publication US20140087995A1 (published 2014)
Numbered stars: 1 amine (or outer) side, 2 acyl side, 3 side chain; on linkers, the order of the positions; unused ones are H or OH. Bridge positions count the residues as written; N and C are the ends. Side chains are listed from the residue outwards. Ends that are not written are not given here. * marks the point of attachment. C20 diacid = O=C(O)CCCCCCCCCCCCCCCCCCC(=O)*; γGlu = O=C(O)[C@H](CCC(=O)[*:2])N[*:1]

T1: human amylin 3(a) receptor (human calcitonin receptor co-expressed with RAMP-3) (human, UniProt P30988 25-474; O60896 24-148, limits assumed)
T1 sequence (looked up) 1: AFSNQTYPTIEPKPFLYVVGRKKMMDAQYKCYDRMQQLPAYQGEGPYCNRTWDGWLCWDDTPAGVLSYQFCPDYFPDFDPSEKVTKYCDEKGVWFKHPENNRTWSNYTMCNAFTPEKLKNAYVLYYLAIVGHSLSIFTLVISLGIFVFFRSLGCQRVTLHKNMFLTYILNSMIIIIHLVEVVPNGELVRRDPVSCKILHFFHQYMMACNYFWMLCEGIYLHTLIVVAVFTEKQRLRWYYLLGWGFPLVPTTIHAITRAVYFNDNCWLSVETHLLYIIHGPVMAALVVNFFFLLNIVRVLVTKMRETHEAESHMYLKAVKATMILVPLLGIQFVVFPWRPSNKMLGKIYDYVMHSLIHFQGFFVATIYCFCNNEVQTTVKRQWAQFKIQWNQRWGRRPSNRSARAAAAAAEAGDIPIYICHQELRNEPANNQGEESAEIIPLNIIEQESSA
T1 sequence (looked up) 2: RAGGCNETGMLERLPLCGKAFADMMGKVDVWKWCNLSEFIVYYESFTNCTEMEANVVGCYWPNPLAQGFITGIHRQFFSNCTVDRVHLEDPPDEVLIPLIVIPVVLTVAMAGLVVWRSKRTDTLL

T2: human calcitonin receptor (human, UniProt P30988 25-474)
T2 sequence (looked up): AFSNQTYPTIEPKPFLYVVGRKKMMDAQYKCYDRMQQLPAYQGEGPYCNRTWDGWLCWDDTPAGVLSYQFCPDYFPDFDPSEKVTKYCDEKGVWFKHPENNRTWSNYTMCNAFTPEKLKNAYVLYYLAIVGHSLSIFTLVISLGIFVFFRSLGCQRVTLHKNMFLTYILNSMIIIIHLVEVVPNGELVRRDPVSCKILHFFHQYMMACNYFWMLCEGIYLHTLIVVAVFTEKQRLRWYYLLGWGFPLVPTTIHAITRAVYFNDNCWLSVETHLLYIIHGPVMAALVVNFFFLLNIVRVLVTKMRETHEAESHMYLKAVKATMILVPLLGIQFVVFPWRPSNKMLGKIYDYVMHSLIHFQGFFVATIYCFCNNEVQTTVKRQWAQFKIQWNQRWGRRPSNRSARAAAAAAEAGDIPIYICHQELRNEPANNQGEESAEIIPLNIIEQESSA


Tests used:
[1] = biological target: T1, human amylin 3(a) receptor (human …); experiment: cell-based or functional assay
[2] = biological target: T2, human calcitonin receptor; experiment: cell-based or functional assay
[3] = biological target: T1, human amylin 3(a) receptor (human …); experiment: SPA competition binding, membranes of Amylin 3(a)/CRE-luc BHK cells, displacement of 125I-rat amylin (Assay (V))
Procedure: The binding assay was performed using scintillation proximity assay (SPA) beads (RPNQ0001) from PerkinElmer and cell membranes from the Amylin 3(a)/CRE-luc cells (as described in Assay (II)) were used. Membranes were prepared in the following way; the cells were rinsed with PBS and incubated with Versene for approximately 5 min before harvesting. The cells were flushed with PBS and the cell-suspension was centrifuged for 5 min at 1000 rpm. Cells were homogenized (ultrathurrax) in a buffer containing 20 mM Na-HEPES and 10 mM EDTA (pH 7.4) and centrifuged at 20.000 rpm for 15 min. The resulting pellet was resuspended, homogenized and centrifuged (20.000 rpm, 15 min) in a buffer containing 20 mM Na-HEPES and 0.1 mM EDTA (pH 7.4, buffer 2). The resulting pellet was resuspended in buffer 2 and protein concentration was measured (BCA protein Assay, Pierce). The homogenate was kept cold during the whole procedure. The membranes were kept at −80° C. until use. The assay was performed in a 384 well Optiplate (PerkinElmer) in a total volume of 40 ul. Membranes were mixed with SPA beads. Final concentration of membranes 35 ng/μL final and SPA beads was 0.05 mg/well. Test-compounds were dissolved in DMSO and further diluted in assay buffer (50 mM Hepes, pH 7.4, 1 mM CaCl2, 5 mM MgCl₂, 0.1% OA and 0.02% Tween20). […] The final mixture was incubated with shaking at 400 rpm for 120 min at 25° C. prior to centrifugation (1500 rpm, 10 min). Samples were analyzed on TopCounter™ (Packard). The IC₅₀ was calculated using (one site binding competition analysis) GraphPad Prism5 as a measure of receptor affinity.

Binder	hAmylin-R funct. EC50 [1]	Ratio hCT/hAmylin funct. [2]	hCTR funct. EC50 [2]	IC50 [3]
K([γGlu-C20 diacid])CNTATCATQRLAEFLRHSSPNFGAIPSSTNVGHETY-NH2 (disulfide 2-7; N-terminus assumed; SMILES CC[C@H](C)[C@H](NC(=O)[C@H](C)NC(=O)CNC(=O)[C@H](Cc1ccccc1)NC(=O)[C@H](CC(N)=O)NC(=O)[C@@H]1CCCN1C(=O)[C@H](CO)NC(=O)[C@H](CO)NC(=O)[C@H](Cc1c[nH]cn1)NC(=O)[C@H](CCCNC(=N)N)NC(=O)[C@H](CC(C)C)NC(=O)[C@H](Cc1ccccc1)NC(=O)[C@H](CCC(=O)O)NC(=O)[C@H](C)NC(=O)[C@H](CC(C)C)NC(=O)[C@H](CCCNC(=N)N)NC(=O)[C@H](CCC(N)=O)NC(=O)[C@@H](NC(=O)[C@H](C)NC(=O)[C@@H]1CSSC[C@H](NC(=O)[C@@H](N)CCCCNC(=O)CC[C@H](NC(=O)CCCCCCCCCCCCCCCCCCC(=O)O)C(=O)O)C(=O)N[C@@H](CC(N)=O)C(=O)N[C@@H]([C@@H](C)O)C(=O)N[C@@H](C)C(=O)N[C@@H]([C@@H](C)O)C(=O)N1)[C@@H](C)O)C(=O)N1CCC[C@H]1C(=O)N[C@@H](CO)C(=O)N[C@@H](CO)C(=O)N[C@H](C(=O)N[C@@H](CC(N)=O)C(=O)N[C@H](C(=O)NCC(=O)N[C@@H](Cc1c[nH]cn1)C(=O)N[C@@H](CCC(=O)O)C(=O)N[C@H](C(=O)N[C@@H](Cc1ccc(O)cc1)C(N)=O)[C@@H](C)O)C(C)C)[C@@H](C)O, also called compound 107)	0.405 nM	6.3	2.54 nM	0.387 nM
K([γGlu-C20 diacid])CNTATCATQRLAEFLRHSSPNFGAIPSSTNVGPNTP-NH2 (disulfide 2-7; N-terminus assumed; SMILES CC[C@H](C)[C@H](NC(=O)[C@H](C)NC(=O)CNC(=O)[C@H](Cc1ccccc1)NC(=O)[C@H](CC(N)=O)NC(=O)[C@@H]1CCCN1C(=O)[C@H](CO)NC(=O)[C@H](CO)NC(=O)[C@H](Cc1c[nH]cn1)NC(=O)[C@H](CCCNC(=N)N)NC(=O)[C@H](CC(C)C)NC(=O)[C@H](Cc1ccccc1)NC(=O)[C@H](CCC(=O)O)NC(=O)[C@H](C)NC(=O)[C@H](CC(C)C)NC(=O)[C@H](CCCNC(=N)N)NC(=O)[C@H](CCC(N)=O)NC(=O)[C@@H](NC(=O)[C@H](C)NC(=O)[C@@H]1CSSC[C@H](NC(=O)[C@@H](N)CCCCNC(=O)CC[C@H](NC(=O)CCCCCCCCCCCCCCCCCCC(=O)O)C(=O)O)C(=O)N[C@@H](CC(N)=O)C(=O)N[C@@H]([C@@H](C)O)C(=O)N[C@@H](C)C(=O)N[C@@H]([C@@H](C)O)C(=O)N1)[C@@H](C)O)C(=O)N1CCC[C@H]1C(=O)N[C@@H](CO)C(=O)N[C@@H](CO)C(=O)N[C@H](C(=O)N[C@@H](CC(N)=O)C(=O)N[C@H](C(=O)NCC(=O)N1CCC[C@H]1C(=O)N[C@@H](CC(N)=O)C(=O)N[C@H](C(=O)N1CCC[C@H]1C(N)=O)[C@@H](C)O)C(C)C)[C@@H](C)O)	0.105 nM	0.9	0.09 nM	0.214 nM
K([γGlu-C20 diacid])CNTATCATQRLAHFLRHSSPNFGAIPSSTNVGPNTP-NH2 (disulfide 2-7; N-terminus assumed; SMILES CC[C@H](C)[C@H](NC(=O)[C@H](C)NC(=O)CNC(=O)[C@H](Cc1ccccc1)NC(=O)[C@H](CC(N)=O)NC(=O)[C@@H]1CCCN1C(=O)[C@H](CO)NC(=O)[C@H](CO)NC(=O)[C@H](Cc1c[nH]cn1)NC(=O)[C@H](CCCNC(=N)N)NC(=O)[C@H](CC(C)C)NC(=O)[C@H](Cc1ccccc1)NC(=O)[C@H](Cc1c[nH]cn1)NC(=O)[C@H](C)NC(=O)[C@H](CC(C)C)NC(=O)[C@H](CCCNC(=N)N)NC(=O)[C@H](CCC(N)=O)NC(=O)[C@@H](NC(=O)[C@H](C)NC(=O)[C@@H]1CSSC[C@H](NC(=O)[C@@H](N)CCCCNC(=O)CC[C@H](NC(=O)CCCCCCCCCCCCCCCCCCC(=O)O)C(=O)O)C(=O)N[C@@H](CC(N)=O)C(=O)N[C@@H]([C@@H](C)O)C(=O)N[C@@H](C)C(=O)N[C@@H]([C@@H](C)O)C(=O)N1)[C@@H](C)O)C(=O)N1CCC[C@H]1C(=O)N[C@@H](CO)C(=O)N[C@@H](CO)C(=O)N[C@H](C(=O)N[C@@H](CC(N)=O)C(=O)N[C@H](C(=O)NCC(=O)N1CCC[C@H]1C(=O)N[C@@H](CC(N)=O)C(=O)N[C@H](C(=O)N1CCC[C@H]1C(N)=O)[C@@H](C)O)C(C)C)[C@@H](C)O)	0.052 nM	0.8	0.04 nM	0.131 nM
K([γGlu-γGlu-C20 diacid])CNTATCATQRLAEFLRHSSPNFGAIPSSTNVGRETY-NH2 (disulfide 2-7; N-terminus assumed; SMILES CC[C@H](C)[C@H](NC(=O)[C@H](C)NC(=O)CNC(=O)[C@H](Cc1ccccc1)NC(=O)[C@H](CC(N)=O)NC(=O)[C@@H]1CCCN1C(=O)[C@H](CO)NC(=O)[C@H](CO)NC(=O)[C@H](Cc1c[nH]cn1)NC(=O)[C@H](CCCNC(=N)N)NC(=O)[C@H](CC(C)C)NC(=O)[C@H](Cc1ccccc1)NC(=O)[C@H](CCC(=O)O)NC(=O)[C@H](C)NC(=O)[C@H](CC(C)C)NC(=O)[C@H](CCCNC(=N)N)NC(=O)[C@H](CCC(N)=O)NC(=O)[C@@H](NC(=O)[C@H](C)NC(=O)[C@@H]1CSSC[C@H](NC(=O)[C@@H](N)CCCCNC(=O)CC[C@H](NC(=O)CC[C@H](NC(=O)CCCCCCCCCCCCCCCCCCC(=O)O)C(=O)O)C(=O)O)C(=O)N[C@@H](CC(N)=O)C(=O)N[C@@H]([C@@H](C)O)C(=O)N[C@@H](C)C(=O)N[C@@H]([C@@H](C)O)C(=O)N1)[C@@H](C)O)C(=O)N1CCC[C@H]1C(=O)N[C@@H](CO)C(=O)N[C@@H](CO)C(=O)N[C@H](C(=O)N[C@@H](CC(N)=O)C(=O)N[C@H](C(=O)NCC(=O)N[C@@H](CCCNC(=N)N)C(=O)N[C@@H](CCC(=O)O)C(=O)N[C@H](C(=O)N[C@@H](Cc1ccc(O)cc1)C(N)=O)[C@@H](C)O)C(C)C)[C@@H](C)O)	0.703 nM	10.6	7.43 nM	0.957 nM
K([γGlu-γGlu-C20 diacid])CNTATCATQRLAEFLRHSSPNFGAIPSSTNVGPETY-NH2 (disulfide 2-7; N-terminus assumed; SMILES CC[C@H](C)[C@H](NC(=O)[C@H](C)NC(=O)CNC(=O)[C@H](Cc1ccccc1)NC(=O)[C@H](CC(N)=O)NC(=O)[C@@H]1CCCN1C(=O)[C@H](CO)NC(=O)[C@H](CO)NC(=O)[C@H](Cc1c[nH]cn1)NC(=O)[C@H](CCCNC(=N)N)NC(=O)[C@H](CC(C)C)NC(=O)[C@H](Cc1ccccc1)NC(=O)[C@H](CCC(=O)O)NC(=O)[C@H](C)NC(=O)[C@H](CC(C)C)NC(=O)[C@H](CCCNC(=N)N)NC(=O)[C@H](CCC(N)=O)NC(=O)[C@@H](NC(=O)[C@H](C)NC(=O)[C@@H]1CSSC[C@H](NC(=O)[C@@H](N)CCCCNC(=O)CC[C@H](NC(=O)CC[C@H](NC(=O)CCCCCCCCCCCCCCCCCCC(=O)O)C(=O)O)C(=O)O)C(=O)N[C@@H](CC(N)=O)C(=O)N[C@@H]([C@@H](C)O)C(=O)N[C@@H](C)C(=O)N[C@@H]([C@@H](C)O)C(=O)N1)[C@@H](C)O)C(=O)N1CCC[C@H]1C(=O)N[C@@H](CO)C(=O)N[C@@H](CO)C(=O)N[C@H](C(=O)N[C@@H](CC(N)=O)C(=O)N[C@H](C(=O)NCC(=O)N1CCC[C@H]1C(=O)N[C@@H](CCC(=O)O)C(=O)N[C@H](C(=O)N[C@@H](Cc1ccc(O)cc1)C(N)=O)[C@@H](C)O)C(C)C)[C@@H](C)O)	0.225 nM	10.5	2.36 nM	0.121 nM
